Results on one substance are retold here after patent publication US20230250156A1.

In the experiment the target is SARS-CoV-2 RBD protein (SARS-CoV-2) (UniProt P0DTC2).

“And” between values parts separate entries of the source, which are not always exact repeats. Equal entries are not always repeated.

On to “ACE2 Ig-TD Quad (ACE2(18-615) Ig-TD) (Fc fusion)”, for which the IC50 was 0.45 nM and 0.449 nM.
